Several values for one entry are separate records, joined by “and”; a condition that tells them apart may be missing. Identical values can stand only once.
Molecular target: human TNF-α (R & D Systems) (human, UniProt P01375 77-233)
Test: cell-based or functional assay

Chain of human TNF-α (R & D Systems) (P01375 77-233 limits assumed): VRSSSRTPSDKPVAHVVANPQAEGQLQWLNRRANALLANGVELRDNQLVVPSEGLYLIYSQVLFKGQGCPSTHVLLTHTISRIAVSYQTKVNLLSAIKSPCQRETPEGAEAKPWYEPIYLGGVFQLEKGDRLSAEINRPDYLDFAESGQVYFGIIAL

apparent Ki-50 (50% inhibition) of TNF-α mediated apoptosis of WEHI-13VAR cells, human TNF-α at 0.5 ng/mL: ~2 ng/mL and ~8e-12 M
B1: trimeric soluble human TNF-RII-T2 fusion protein (human soluble TNF-RII fused to the T2 C-propeptide of human α(I) collagen) (receptor)
chain: LPAQVAFTPYAPEPGSTCRLREYYDQTAQMCCSKCSPGQHAKVFCTKTSDTVCDSCEDSTYTQLWNWVPECLSCGSRCSSDQVETQACTREQNRICTCRPGWYCALSKQEGCRLCAPLRKCRPGFGVARPGTETSDVVCKPCAPGTFSNTTSSTDICRPHQICNVVAIPGNASMDAVCTSTSPTRSMAPGAVHLPQPVSTRSQHTQPTPEPSTAPSTSFLLPMGPSPPAEGSTGSDANVVRDRDLEVDTTLKSLSQQIENIRSPEGSRKNPARTCRDLKMCHSDWKSGEYWIDPNQGCNLDAIKVFCNMETGETCVYPTQPSVAQKNWYISKNPKDKRHVWFGESMTDGFQFEYGGQGSDPADVAIQLTFLRLMSTEASQNITYHCKNSVAYMDQQTGNLKKALLLKGSNEIEIRAEGNSRFTYSVTVDGCTSHTGAWGKTVIEYKTTKSSRLPIIDVAPLDVGAPDQEFGFDVGPVCFL
